Tests used:
human FSH receptor = target: T1, human FSH receptor (human, UniProt P23945 18-695); assay: cell-based or functional assay
T1 sequence: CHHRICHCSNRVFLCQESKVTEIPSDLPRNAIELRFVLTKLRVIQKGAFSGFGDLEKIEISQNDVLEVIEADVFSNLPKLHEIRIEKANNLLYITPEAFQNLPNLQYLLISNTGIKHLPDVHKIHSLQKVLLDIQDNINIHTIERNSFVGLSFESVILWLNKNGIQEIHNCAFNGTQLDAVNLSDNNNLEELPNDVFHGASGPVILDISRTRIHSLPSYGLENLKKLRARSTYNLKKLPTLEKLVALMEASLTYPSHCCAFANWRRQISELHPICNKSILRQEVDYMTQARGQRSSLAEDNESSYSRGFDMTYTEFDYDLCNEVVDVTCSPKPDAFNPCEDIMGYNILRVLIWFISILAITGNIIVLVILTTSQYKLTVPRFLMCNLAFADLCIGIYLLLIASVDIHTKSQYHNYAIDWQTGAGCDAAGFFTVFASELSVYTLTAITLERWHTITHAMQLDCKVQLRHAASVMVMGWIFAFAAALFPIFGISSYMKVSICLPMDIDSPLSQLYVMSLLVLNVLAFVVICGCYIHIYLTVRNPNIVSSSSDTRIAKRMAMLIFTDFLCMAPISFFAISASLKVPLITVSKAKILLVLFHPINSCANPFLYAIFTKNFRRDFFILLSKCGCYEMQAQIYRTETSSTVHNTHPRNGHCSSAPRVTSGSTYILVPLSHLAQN

rat LH receptor = target: T2, rat LH receptor (rat, UniProt P16235 27-700, limits assumed); assay: not described; data not shown
T2 construct: the form used in the assay is not described; also called rat luteinizing hormone receptor
T2 sequence (P16235 27-700 limits assumed): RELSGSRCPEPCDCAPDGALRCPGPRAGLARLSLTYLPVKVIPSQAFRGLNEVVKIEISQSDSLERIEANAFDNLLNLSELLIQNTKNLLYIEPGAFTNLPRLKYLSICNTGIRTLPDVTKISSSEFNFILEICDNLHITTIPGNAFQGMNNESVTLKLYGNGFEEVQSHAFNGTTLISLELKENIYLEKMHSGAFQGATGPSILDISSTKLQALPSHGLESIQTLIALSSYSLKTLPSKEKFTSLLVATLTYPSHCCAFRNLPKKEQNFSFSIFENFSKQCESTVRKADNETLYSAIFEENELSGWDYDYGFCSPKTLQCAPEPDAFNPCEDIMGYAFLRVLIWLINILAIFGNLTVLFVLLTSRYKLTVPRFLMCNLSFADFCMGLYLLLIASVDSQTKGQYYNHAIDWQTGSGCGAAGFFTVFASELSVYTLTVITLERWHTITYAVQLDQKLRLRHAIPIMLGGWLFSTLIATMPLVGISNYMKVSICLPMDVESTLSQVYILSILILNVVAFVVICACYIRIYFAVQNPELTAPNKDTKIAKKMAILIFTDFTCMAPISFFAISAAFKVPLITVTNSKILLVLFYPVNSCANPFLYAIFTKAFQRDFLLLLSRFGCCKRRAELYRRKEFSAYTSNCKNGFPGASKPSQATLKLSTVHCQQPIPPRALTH

human LH receptor = target: T3, human LH receptor (human, UniProt P22888 27-699, limits assumed); assay: not described; data not shown
T3 construct: the form used in the assay is not described; also called human luteinizing hormone (receptor)
T3 sequence (P22888 27-699 R124G/N312S limits assumed): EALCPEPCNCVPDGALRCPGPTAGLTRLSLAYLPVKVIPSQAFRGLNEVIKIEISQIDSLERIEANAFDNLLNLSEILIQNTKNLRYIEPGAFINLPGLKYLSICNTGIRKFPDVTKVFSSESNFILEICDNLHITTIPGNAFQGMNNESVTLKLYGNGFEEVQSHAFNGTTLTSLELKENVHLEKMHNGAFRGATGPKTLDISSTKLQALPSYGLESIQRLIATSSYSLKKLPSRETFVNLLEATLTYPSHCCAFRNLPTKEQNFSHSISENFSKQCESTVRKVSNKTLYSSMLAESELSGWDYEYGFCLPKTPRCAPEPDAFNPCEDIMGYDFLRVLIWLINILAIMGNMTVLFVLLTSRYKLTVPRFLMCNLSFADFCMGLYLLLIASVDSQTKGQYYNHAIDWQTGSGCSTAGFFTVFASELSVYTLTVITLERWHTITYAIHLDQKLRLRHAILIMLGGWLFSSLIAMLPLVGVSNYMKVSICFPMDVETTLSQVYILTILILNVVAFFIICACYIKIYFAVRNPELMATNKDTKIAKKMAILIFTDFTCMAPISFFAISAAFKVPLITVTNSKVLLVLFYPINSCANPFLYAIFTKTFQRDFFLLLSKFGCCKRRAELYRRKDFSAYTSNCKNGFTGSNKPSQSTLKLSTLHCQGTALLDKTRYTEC

potency, total cAMP production in CHO-FSHR cells, compared to Follistim (wild type FSH) (human FSH receptor): 30 fold
potency, total cAMP production in KGN-FSHR cells, compared to wild type FSH (human FSH receptor): 30 fold
binding result (rat LH receptor): binds
binding result (human LH receptor): no binding
B1: FSH analog TR-4402: alpha(E14R + Q20R + G73R) + betaE4R (ligand)
chain 1: not shown
chain 2: NSCRLTNITIAIEKEECRFCISINTTWCAGYCYTRDLVYKDPARPKIQKTCTFKELVYETVRVPGCAHHADSLYTYPVATQCHCGKCDSDSTDCTVRGLGPSYCSFGEMKE
